Laboratory results from patent US7300651.

Target: anti-idiotype antibody 3H1
Assay: Ab1-Ab2 binding inhibition assays; competitor 8019

Sequence of anti-idiotype antibody 3H1 (VL, as listed by the source, chain 1 of 2): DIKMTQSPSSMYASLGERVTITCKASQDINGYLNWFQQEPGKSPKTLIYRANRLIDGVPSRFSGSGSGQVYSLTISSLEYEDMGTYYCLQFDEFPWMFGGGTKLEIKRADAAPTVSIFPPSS
Sequence of anti-idiotype antibody 3H1 (VH, as listed by the source, chain 2 of 2): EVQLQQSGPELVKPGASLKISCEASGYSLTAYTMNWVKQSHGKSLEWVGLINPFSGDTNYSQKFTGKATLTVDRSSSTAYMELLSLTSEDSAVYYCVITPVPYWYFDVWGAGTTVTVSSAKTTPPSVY

control normal serum pool (antibody)
inhibition: 10 to 15%
